According to the supplement of paper PMC10567573:

B1: MLH1 (parent)
chain: YNIATRRKALKNPSEEYGKILEVV
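Note: lentivirally expressed fusions sorted by FACS into six bins by GFP to DsRed ratio, PSI derived from sequencing read proportions per bin multiplied by bin number.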

Variants of: B1
Experiment: protein stability index of a GFP-peptide fusion (GPS, HEK-293T) (PSI 1-6); higher = more stable
Details: c terminus: a fixed tail appended
In the case of YNIATRRKALKNPSEEYGKIIEVV, the protein stability index is reported as 2.17. YNIATRRKALKNPSNEYGKILEVV showed a protein stability index of 2.43. In the case of YNIATRRKALKNPSEEYGKILEDV, the protein stability index is reported as 3.65. Variant YNIATRRKALKNPFEEYGKILEVV has a protein stability index of 2.01. YNIATRRKAHKNPSEEYGKILEVV showed a protein stability index of 3. With YNIATRRKALNNPSEEYGKILEVV the protein stability index was 2.69. For YNIATRRKALKNPSEEYGKILEVC, the protein stability index was 3.37. In the case of YNIAWRRKALKNPSEEYGKILEVV, the protein stability index is reported as 1.83. YNIATRRKALKNPSEEYGWILEVV gave a protein stability index of 1.65. Work on YNIATRRGALKNPSEEYGKILEVV yielded a protein stability index of 3.37. YNIATRRKALKNPSEEYGKICEVV showed a protein stability index of 4.26. Work on YNIATRRKALKNPSEAYGKILEVV yielded a protein stability index of 2.37. Variant YNMATRRKALKNPSEEYGKILEVV has a protein stability index of 3.08. YNIATVRKALKNPSEEYGKILEVV gave a protein stability index of 2.1. YNIATRRKALKNPSEEYNKILEVV showed a protein stability index of 3.13. Work on YNIATRRKALKNPSGEYGKILEVV yielded a protein stability index of 1.76. YNIATRWKALKNPSEEYGKILEVV gave a protein stability index of 1.78. YNIAGRRKALKNPSEEYGKILEVV showed a protein stability index of 2.82. YNIATRRDALKNPSEEYGKILEVV gave a protein stability index of 3.09. YNIATRRKALKNPSEEYGKILEIV gave a protein stability index of 2.5. Work on YNIATRRKAKKNPSEEYGKILEVV yielded a protein stability index of 3.31. In the case of YNIATRRKALKNPSEEYGKIHEVV, the protein stability index is reported as 3.61. Work on YNIATRRKALKNPSEEYGNILEVV yielded a protein stability index of 3.29. YEIATRRKALKNPSEEYGKILEVV gave a protein stability index of 3.12. Work on YNIALRRKALKNPSEEYGKILEVV yielded a protein stability index of 2.85. With YNIYTRRKALKNPSEEYGKILEVV the protein stability index was 2.12. Work on YNIATRRKYLKNPSEEYGKILEVV yielded a protein stability index of 2.09. Variant YNIAARRKALKNPSEEYGKILEVV has a protein stability index of 2.54. With YNIATGRKALKNPSEEYGKILEVV the protein stability index was 2.76. YNIATRRKALKNPSEEYGVILEVV showed a protein stability index of 1.74. FNIATRRKALKNPSEEYGKILEVV gave a protein stability index of 2.43. Variant YNIATRRKALKNPSEEYTKILEVV has a protein stability index of 2.19. Variant YNIATQRKALKNPSEEYGKILEVV has a protein stability index of 2.82. For YNIATRRKALKNPSEEYGKGLEVV, the protein stability index was 3.52. For YMIATRRKALKNPSEEYGKILEVV, the protein stability index was 1.85. In the case of YNIAYRRKALKNPSEEYGKILEVV, the protein stability index is reported as 2. YNNATRRKALKNPSEEYGKILEVV gave a protein stability index of 3.29. For YNIATRRKALKNPSEEYGKSLEVV, the protein stability index was 4.11. YNICTRRKALKNPSEEYGKILEVV gave a protein stability index of 3.31. YNIATRRKALKNPSERYGKILEVV showed a protein stability index of 2.5. In the case of YNGATRRKALKNPSEEYGKILEVV, the protein stability index is reported as 2.97. In the case of YNIATRRKALKNPSEEYGCILEVV, the protein stability index is reported as 1.8. YNIATRRKALKNPSEEYGKILEVL gave a protein stability index of 2.45. Variant YFIATRRKALKNPSEEYGKILEVV has a protein stability index of 1.71. YNIATRRKALKNPSEFYGKILEVV gave a protein stability index of 1.62. YNIATRRKALKNPSEEYVKILEVV gave a protein stability index of 1.95. Work on YNIATRRHALKNPSEEYGKILEVV yielded a protein stability index of 2.48. With YNIATRCKALKNPSEEYGKILEVV the protein stability index was 2.37. For YNIATRRKALKNPSEEYGKILQVV, the protein stability index was 2.42. Variant YNIATRRKALKNISEEYGKILEVV has a protein stability index of 2.15. For YNIATRRFALKNPSEEYGKILEVV, the protein stability index was 2.27. With YNIATLRKALKNPSEEYGKILEVV the protein stability index was 1.79. With YNIATRRKALKNPSEEYGKILEVG the protein stability index was 3.32. With YNIATRRKALKNPSEEYGKILCVV the protein stability index was 1.75. For YNIATRRKALKNPDEEYGKILEVV, the protein stability index was 2.98. Work on KNIATRRKALKNPSEEYGKILEVV yielded a protein stability index of 3.52. With YNKATRRKALKNPSEEYGKILEVV the protein stability index was 2.98. YNIATRRKALKNPSEEYGKILEYV showed a protein stability index of 2.5. For DNIATRRKALKNPSEEYGKILEVV, the protein stability index was 3.69. In the case of MNIATRRKALKNPSEEYGKILEVV, the protein stability index is reported as 2.76. With YNIATRRKALKNPWEEYGKILEVV the protein stability index was 1.43. YNIAPRRKALKNPSEEYGKILEVV showed a protein stability index of 2.82. With YNIATRRKALKFPSEEYGKILEVV the protein stability index was 1.97. Variant YNIATRRKALKNPSEEYWKILEVV has a protein stability index of 1.46. With YNIATRRKALKNPSEEYGKIEEVV the protein stability index was 4.02. Work on YNIATWRKALKNPSEEYGKILEVV yielded a protein stability index of 1.96. Work on YNIATRRKALKNPSEEYGKIGEVV yielded a protein stability index of 3.52. YNIATDRKALKNPSEEYGKILEVV showed a protein stability index of 3.69. With YNIATRRKALKNHSEEYGKILEVV the protein stability index was 2.94. Work on YNIATRRKALKNPSEETGKILEVV yielded a protein stability index of 3.72. YNIATRRKALKNPSEEYGKYLEVV gave a protein stability index of 3.18. Work on YNIATRRKALKNPSEEYGKILEVW yielded a protein stability index of 1.96. YNIATRRKALKNPSEEYGHILEVV showed a protein stability index of 2.42. Variant YNIATRRKALKNPSEEYGKILECV has a protein stability index of 3.03. YNIATRRKALKNPSEEYGKPLEVV showed a protein stability index of 3.3. YNIATRRKALKNPSEEYGIILEVV gave a protein stability index of 1.8. In the case of YNAATRRKALKNPSEEYGKILEVV, the protein stability index is reported as 3.11. With YNIATRRKALKNPSEMYGKILEVV the protein stability index was 2.15. Variant YNIATRRKALKNPSHEYGKILEVV has a protein stability index of 2.43. YNIATYRKALKNPSEEYGKILEVV showed a protein stability index of 1.76. In the case of YNIATRRKALKNPREEYGKILEVV, the protein stability index is reported as 2.94. Work on YNIAVRRKALKNPSEEYGKILEVV yielded a protein stability index of 3.09. For YNIATKRKALKNPSEEYGKILEVV, the protein stability index was 2.99. Work on YCIATRRKALKNPSEEYGKILEVV yielded a protein stability index of 2.18. Variant YNIATCRKALKNPSEEYGKILEVV has a protein stability index of 1.89. YNIATRRKSLKNPSEEYGKILEVV gave a protein stability index of 2.93. For YNIATRRKALKNMSEEYGKILEVV, the protein stability index was 2.27. For YNIATRRKATKNPSEEYGKILEVV, the protein stability index was 3.14. Variant YNIATRRKALKNPSEEWGKILEVV has a protein stability index of 2.66. With YNIATRRKALKNPSEEYGKILEGV the protein stability index was 3.62. For YNIDTRRKALKNPSEEYGKILEVV, the protein stability index was 3.15. YNIATRRKALKNPSEEYYKILEVV gave a protein stability index of 2.34. Work on YNIATRRKALKNPSEESGKILEVV yielded a protein stability index of 3.75. With YNIVTRRKALKNPSEEYGKILEVV the protein stability index was 2.49.
